{"source": "the supplement of paper PMC10567573", "parents": {"B1": {"name": "ZNF649 (parent)", "chain": "MTKAQESLTLEDVAVDFTWEEWQF"}}}
{"variants_of": "B1", "assay": "protein stability index of a GFP-peptide fusion (GPS, HEK-293T) (PSI 1-6); higher = more stable", "conditions": "c terminus: a fixed tail appended"}
{"variant": "MLKAQESLTLEDVAVDFTWEEWQF", "note": "[T2L]", "protein stability index": 3.97}
{"variant": "MFKAQESLTLEDVAVDFTWEEWQF", "note": "[T2F]", "protein stability index": 2.66}
{"variant": "MNKAQESLTLEDVAVDFTWEEWQF", "note": "[T2N]", "protein stability index": 3.62}
{"variant": "MSKAQESLTLEDVAVDFTWEEWQF", "note": "[T2S]", "protein stability index": 2.55}
{"variant": "MHKAQESLTLEDVAVDFTWEEWQF", "note": "[T2H]", "protein stability index": 2.88}
{"variant": "MKKAQESLTLEDVAVDFTWEEWQF", "note": "[T2K]", "protein stability index": 3.77}
{"variant": "MIKAQESLTLEDVAVDFTWEEWQF", "note": "[T2I]", "protein stability index": 2.75}
{"variant": "MPKAQESLTLEDVAVDFTWEEWQF", "note": "[T2P]", "protein stability index": 3.66}
{"variant": "MRKAQESLTLEDVAVDFTWEEWQF", "note": "[T2R]", "protein stability index": 2.72}
{"variant": "MYKAQESLTLEDVAVDFTWEEWQF", "note": "[T2Y]", "protein stability index": 2.33}
{"variant": "MTGAQESLTLEDVAVDFTWEEWQF", "note": "[K3G]", "protein stability index": 3.36}
{"variant": "MTWAQESLTLEDVAVDFTWEEWQF", "note": "[K3W]", "protein stability index": 2.53}
{"variant": "MTSAQESLTLEDVAVDFTWEEWQF", "note": "[K3S]", "protein stability index": 3.85}
{"variant": "MTHAQESLTLEDVAVDFTWEEWQF", "note": "[K3H]", "protein stability index": 3.7}
{"variant": "MTTAQESLTLEDVAVDFTWEEWQF", "note": "[K3T]", "protein stability index": 3.33}
{"variant": "MTLAQESLTLEDVAVDFTWEEWQF", "note": "[K3L]", "protein stability index": 2.84}
{"variant": "MTDAQESLTLEDVAVDFTWEEWQF", "note": "[K3D]", "protein stability index": 3.63}
{"variant": "MTCAQESLTLEDVAVDFTWEEWQF", "note": "[K3C]", "protein stability index": 2.23}
{"variant": "MTMAQESLTLEDVAVDFTWEEWQF", "note": "[K3M]", "protein stability index": 2.64}
{"variant": "MTVAQESLTLEDVAVDFTWEEWQF", "note": "[K3V]", "protein stability index": 3.23}
{"variant": "MTPAQESLTLEDVAVDFTWEEWQF", "note": "[K3P]", "protein stability index": 3.33}
{"variant": "MTNAQESLTLEDVAVDFTWEEWQF", "note": "[K3N]", "protein stability index": 3.65}
{"variant": "MTFAQESLTLEDVAVDFTWEEWQF", "note": "[K3F]", "protein stability index": 2.17}
{"variant": "MTQAQESLTLEDVAVDFTWEEWQF", "note": "[K3Q]", "protein stability index": 2.98}
{"variant": "MTRAQESLTLEDVAVDFTWEEWQF", "note": "[K3R]", "protein stability index": 3.12}
{"variant": "MTEAQESLTLEDVAVDFTWEEWQF", "note": "[K3E]", "protein stability index": 4.29}
{"variant": "MTIAQESLTLEDVAVDFTWEEWQF", "note": "[K3I]", "protein stability index": 2.74}
{"variant": "MTYAQESLTLEDVAVDFTWEEWQF", "note": "[K3Y]", "protein stability index": 2.64}
{"variant": "MTKAQLSLTLEDVAVDFTWEEWQF", "note": "[E6L]", "protein stability index": 2.43}
{"variant": "MTKAQPSLTLEDVAVDFTWEEWQF", "note": "[E6P]", "protein stability index": 2.78}
{"variant": "MTKAQWSLTLEDVAVDFTWEEWQF", "note": "[E6W]", "protein stability index": 1.95}
{"variant": "MTKAQHSLTLEDVAVDFTWEEWQF", "note": "[E6H]", "protein stability index": 2.2}
{"variant": "MTKAQISLTLEDVAVDFTWEEWQF", "note": "[E6I]", "protein stability index": 4.31}
{"variant": "MTKAQASLTLEDVAVDFTWEEWQF", "note": "[E6A]", "protein stability index": 1.87}
{"variant": "MTKAQVSLTLEDVAVDFTWEEWQF", "note": "[E6V]", "protein stability index": 1.75}
{"variant": "MTKAQRSLTLEDVAVDFTWEEWQF", "note": "[E6R]", "protein stability index": 2.88}
{"variant": "MTKAQKSLTLEDVAVDFTWEEWQF", "note": "[E6K]", "protein stability index": 3.02}
{"variant": "MTKAQFSLTLEDVAVDFTWEEWQF", "note": "[E6F]", "protein stability index": 1.89}
{"variant": "MTKAQYSLTLEDVAVDFTWEEWQF", "note": "[E6Y]", "protein stability index": 1.53}
{"variant": "MTKAQTSLTLEDVAVDFTWEEWQF", "note": "[E6T]", "protein stability index": 2.71}
{"variant": "MTKAQSSLTLEDVAVDFTWEEWQF", "note": "[E6S]", "protein stability index": 2.33}
{"variant": "MTKAQMSLTLEDVAVDFTWEEWQF", "note": "[E6M]", "protein stability index": 1.92}
{"variant": "MTKAQQSLTLEDVAVDFTWEEWQF", "note": "[E6Q]", "protein stability index": 2.94}
{"variant": "MTKAQDSLTLEDVAVDFTWEEWQF", "note": "[E6D]", "protein stability index": 3.14}
{"variant": "MTKAQCSLTLEDVAVDFTWEEWQF", "note": "[E6C]", "protein stability index": 2.52}
{"variant": "MTKAQGSLTLEDVAVDFTWEEWQF", "note": "[E6G]", "protein stability index": 2.74}
{"variant": "MTKAQNSLTLEDVAVDFTWEEWQF", "note": "[E6N]", "protein stability index": 2.88}
{"variant": "MTKAQEILTLEDVAVDFTWEEWQF", "note": "[S7I]", "protein stability index": 3.1}
{"variant": "MTKAQECLTLEDVAVDFTWEEWQF", "note": "[S7C]", "protein stability index": 2.9}
{"variant": "MTKAQEALTLEDVAVDFTWEEWQF", "note": "[S7A]", "protein stability index": 2.82}
{"variant": "MTKAQEDLTLEDVAVDFTWEEWQF", "note": "[S7D]", "protein stability index": 3.75}
{"variant": "MTKAQELLTLEDVAVDFTWEEWQF", "note": "[S7L]", "protein stability index": 2.43}
{"variant": "MTKAQEELTLEDVAVDFTWEEWQF", "note": "[S7E]", "protein stability index": 3.93}
{"variant": "MTKAQEHLTLEDVAVDFTWEEWQF", "note": "[S7H]", "protein stability index": 2.6}
{"variant": "MTKAQEGLTLEDVAVDFTWEEWQF", "note": "[S7G]", "protein stability index": 3.8}
{"variant": "MTKAQEKLTLEDVAVDFTWEEWQF", "note": "[S7K]", "protein stability index": 3.01}
{"variant": "MTKAQEFLTLEDVAVDFTWEEWQF", "note": "[S7F]", "protein stability index": 3.2}
{"variant": "MTKFQESLTLEDVAVDFTWEEWQF", "note": "[A4F]", "protein stability index": 2.51}
{"variant": "MTKKQESLTLEDVAVDFTWEEWQF", "note": "[A4K]", "protein stability index": 3.15}
{"variant": "MTKEQESLTLEDVAVDFTWEEWQF", "note": "[A4E]", "protein stability index": 3.66}
{"variant": "MTKIQESLTLEDVAVDFTWEEWQF", "note": "[A4I]", "protein stability index": 2.89}
{"variant": "MTKQQESLTLEDVAVDFTWEEWQF", "note": "[A4Q]", "protein stability index": 3.18}
{"variant": "MTKNQESLTLEDVAVDFTWEEWQF", "note": "[A4N]", "protein stability index": 3.04}
{"variant": "MTKTQESLTLEDVAVDFTWEEWQF", "note": "[A4T]", "protein stability index": 3.11}
{"variant": "MTKRQESLTLEDVAVDFTWEEWQF", "note": "[A4R]", "protein stability index": 2.97}
{"variant": "MTKMQESLTLEDVAVDFTWEEWQF", "note": "[A4M]", "protein stability index": 2.5}
{"variant": "MTKGQESLTLEDVAVDFTWEEWQF", "note": "[A4G]", "protein stability index": 2.94}
{"variant": "MTKWQESLTLEDVAVDFTWEEWQF", "note": "[A4W]", "protein stability index": 2.15}
{"variant": "MTKCQESLTLEDVAVDFTWEEWQF", "note": "[A4C]", "protein stability index": 2.4}
{"variant": "MTKYQESLTLEDVAVDFTWEEWQF", "note": "[A4Y]", "protein stability index": 2.56}
{"variant": "MTKSQESLTLEDVAVDFTWEEWQF", "note": "[A4S]", "protein stability index": 3.45}
{"variant": "MTKVQESLTLEDVAVDFTWEEWQF", "note": "[A4V]", "protein stability index": 2.52}
{"variant": "MTKDQESLTLEDVAVDFTWEEWQF", "note": "[A4D]", "protein stability index": 3.48}
{"variant": "MTKHQESLTLEDVAVDFTWEEWQF", "note": "[A4H]", "protein stability index": 3.48}
{"variant": "MTKLQESLTLEDVAVDFTWEEWQF", "note": "[A4L]", "protein stability index": 3.71}
{"variant": "MTKPQESLTLEDVAVDFTWEEWQF", "note": "[A4P]", "protein stability index": 3.75}
{"variant": "NTKAQESLTLEDVAVDFTWEEWQF", "note": "[M1N]", "protein stability index": 4.67}
{"variant": "GTKAQESLTLEDVAVDFTWEEWQF", "note": "[M1G]", "protein stability index": 3.43}
{"variant": "QTKAQESLTLEDVAVDFTWEEWQF", "note": "[M1Q]", "protein stability index": 3.89}
{"variant": "HTKAQESLTLEDVAVDFTWEEWQF", "note": "[M1H]", "protein stability index": 3.72}
{"variant": "WTKAQESLTLEDVAVDFTWEEWQF", "note": "[M1W]", "protein stability index": 2.07}
{"variant": "STKAQESLTLEDVAVDFTWEEWQF", "note": "[M1S]", "protein stability index": 3.91}
{"variant": "FTKAQESLTLEDVAVDFTWEEWQF", "note": "[M1F]", "protein stability index": 2.69}
{"variant": "VTKAQESLTLEDVAVDFTWEEWQF", "note": "[M1V]", "protein stability index": 3.07}
{"variant": "CTKAQESLTLEDVAVDFTWEEWQF", "note": "[M1C]", "protein stability index": 2.82}
{"variant": "PTKAQESLTLEDVAVDFTWEEWQF", "note": "[M1P]", "protein stability index": 2.81}
{"variant": "ATKAQESLTLEDVAVDFTWEEWQF", "note": "[M1A]", "protein stability index": 3.33}
{"variant": "DTKAQESLTLEDVAVDFTWEEWQF", "note": "[M1D]", "protein stability index": 3.95}
{"variant": "KTKAQESLTLEDVAVDFTWEEWQF", "note": "[M1K]", "protein stability index": 3.29}
{"variant": "YTKAQESLTLEDVAVDFTWEEWQF", "note": "[M1Y]", "protein stability index": 2.96}
{"variant": "LTKAQESLTLEDVAVDFTWEEWQF", "note": "[M1L]", "protein stability index": 2.94}
{"variant": "TTKAQESLTLEDVAVDFTWEEWQF", "note": "[M1T]", "protein stability index": 3.79}
{"variant": "ITKAQESLTLEDVAVDFTWEEWQF", "note": "[M1I]", "protein stability index": 2.83}
{"variant": "ETKAQESLTLEDVAVDFTWEEWQF", "note": "[M1E]", "protein stability index": 4.48}
